# “Also recorded” adds a separate entry of the source. Peptide text beside a SMILES is read from it.
# What was measured:
# [1] = Fibril stability by UPLC; assay type: physicochemical; details: 2 mg/ml; 10 min, 1 h, 24 h, 10 d at RT or 37° C.
# Protocol: Fibrils were generated by dissolving lyophilized peptides in DMSO to 10 mg/ml followed by adding PBS to receive a final concentration of 2 mg/ml. Fibril stocks were incubated at room temperature (RT) and 37° C. and after 10 min, 1 h, 24 h and 10 days stability assays using ultra performance liquid chromatography (UPLC) with a reverse phase column was performed in collaboration with the Core Facility Functional Peptidomics (Ulm University). Shown is one individual experiment.
# Since the stability of pharmaceutical products must be ensured during application (Grassi et al., 2019), we analyzed the stability of RM-8, which contains a C-terminal methionine, an amino acid sensitive to oxidation, by ultra performance liquid chromatography (UPLC). To that end, RM-8 nanofibrils were incubated for 10 min, 1 h, 24 h or 10 d at room temperature (RT) of 37° C. followed by UPLC analysis.
# [2] = system: Human CD4+ and CD8+ T cells; test: Viability of transduced human T cells, trypan blue staining; assay type: cell-based; details: 7 days
# Protocol: FIG. 10: RM-8 nanofibrils enhance GALV-γ-RV transduction of T cells. […] GFP expression of CD3+ cells was analyzed by flow cytometry. Viability was determined by trypan blue staining. Human CD4+ and CD8+ T cells were isolated from Buffy coats of two donors. Indicated transduction enhancers were incubated with GAL V-γ-RV and then the mix was used to transduce T cells. Shown are average values (±SD). SD, standard deviation.
# For the CAR T cell like process human CD4+ and CD8+ T cells were isolated from Buffy coats of two donors using RosetteSep™ Human CD4+ and CD8+ T Cell Enrichment Cocktail (STEMCELL Technologies) according to manufacturer's protocol. Isolated T cells were activated using Dynabeads™ Human T-Activator CD3/CD28 (Gibco™) according to manufacturer's protocol for three days in presence of 10 ng/ml interleukin-2 (IL-2). After 3 days the magnetic Dynabeads were removed using a magnet and T cells were cultured in presence of 9 ng/ml interleukin-7 (IL-7) and 10 ng/ml interleukin-15 (IL-15). After 1 day T cells were transduced with GALV-γ-RV using the transduction enhancers RM-8 (50 μg/ml), Vectofusin®-1 (10 μg/ml), or RetroNectin (20 μg/ml). […] After 7 days the transduced T cells were analyzed by flow cytometry.
# [3] = system: R5-tropic HIV-1; test: HIV-1 infection of TZM-bl cells, Tat-inducible β-galactosidase activity; details: 3 days; for n-fold enhancement of HIV-1 infection: virus treated with 150 μg/ml peptide
# Protocol: HIV-1 was produced from pBRNL4.39-92TH14, a plasmid containing a CCR5 tropic molecular HIV-1 clone (Papkalla et al., 2002). Infectious HIV-1 stocks were prepared by transfection of 293T cells by calcium phosphate transfection and HIV-1 infection of TZM-bl cells was determined by detecting cellular β-galactosidase activity.
# To determine the effect on HIV-1 infection, stocks of the CCR5 tropic HIV-1 were generated by transient transduction of 293T cells with proviral DNA and harvested 2 days later. The HIV-1 stock was titrated and a dilution factor of 125 was chosen for infection of TZM-bl cells to reach a maximal infection enhancement. HIV-1 virus was added to serially diluted IL-18 peptides and mixtures were used to infect TZM-bl cells which contain the reporter gene β-galacosidase under the control of the HIV-1-LTR promoter (Wei et al., 2002).
# [4] = Thioflavin T (ThT) fluorescence, fibril formation; assay type: physicochemical; details: peptide 2 mg/ml in PBS, RT 10 min; 'except for' = no ThT signal detected
# Source text: The fibril peptide has the activity of forming fibrils in an aqueous solution, the term “fibril” relating to any threadlike structure or filament comprising, preferably consisting of, a multitude of fibril peptides; preferably, the fibrils are nanofibrils, i.e. have a diameter of from 2 to 20 nm, and/or a length of from 100 nm to 10 μm, preferably of from 100 nm to 5 μm. Preferably, aggregation of fibril peptides occurs spontaneously in aqueous solution, wherein an aqueous solution is a solution comprising at most 28% (v/v), preferably at most 15% (v/v), more preferably at most 10% (v/v), still more preferably at most 5% (v/v), most preferably at most 2% (v/v), organic solvents. Methods for determining the activity of forming fibrils are known to the skilled person and are shown herein in the Examples. Preferably, the activity of forming fibrils is determined by a Thioflavin T binding assay as specified herein in the Examples. The activity of forming fibrils may, however, also be determined by Transmission electron microscopy (TEM), Congo Red staining, measurement of conversion rate, and/or Fourier transform infrared (FTIR) spectroscopy; the aforesaid methods are known in the art.
# The peptides were solved in HFIP (1,1,1,3,3,3-Hexafluoro-2-propanol) and were sonicated using an Ultrasonic cleaner. The peptides were stored at −20° C. and for each experiment they were freshly dissolved in DMSO to 10 mg/ml; to generate fibrils, the peptides were diluted in PBS to get 2 mg/ml or 1 mg/ml and incubated for 10 min at room temperature (RT).
# The lyophilized RM-8 and its derivatives (Peptides 1-42) were solved in DMSO to 10 mg/ml and stored at 4° C. For each experiment they were freshly solved in PBS to 2 mg/ml and incubated for 10 min at RT.
# (§1) Peptides derived from human interleukin-18 were identified by an in silico-screening approach where the human protein interleukin-18 (Q14116) was analyzed by the amyloid prediction tools ZipperDB, TANGO 2.0 and PASTA (FIG. 1A). To examine if these endogenous peptides form nanofibrils, the freshly prepared peptides were incubated with the amyloid specific dye Thioflavin T (ThT), which fluorescence increases upon binding to amyloid fibrils. […] To determine if the IL-18 peptides have the ability to form positively charged fibrils the zeta potential was measured.
# [5] = Zeta potential of peptide nanofibrils; assay type: physicochemical; details: peptides incubated at RT for 10 min
# Protocol: FIG. 1: Human interleukin-18 (IL-18) derived peptides form nanofibrils. (A) Table displaying sequences, physical and chemical parameters of peptides derived from IL-18. The positively charged amino acids are written in italics. (B) ThT fluorescence of the tested peptides and EF-C (Protransduzin®-A) which were incubated at RT for 10 min. (C) Zeta potential of peptides which were incubated at RT for 10 min. Shown are average values (±SD) of duplicates from two independent experiments. (D-J) Transmission electron microscopy images of EF-C (D), RK-10 (E-F), RM-8 (G-H), RS-7 (I), and FK-7 (J). […]
# FIG. 5: RM-8 analogs from alanine scanning form positively charged nanofibrils. […] (B) ThT fluorescence of alanine scanning derived peptides, RM-8, QH-9 and EF-C. […]
# as §1
compound,measurement,setting,value
"CC[C@H](C)[C@H](NC(=O)[C@H](Cc1ccccc1)NC(=O)[C@@H](NC(=O)[C@@H](NC(=O)[C@@H](N)CCCNC(=N)N)[C@@H](C)O)[C@@H](C)CC)C(=O)N[C@H](C(=O)N[C@@H](CO)C(=O)N[C@@H](CCSC)C(=O)O)[C@@H](C)CC [RM-8, RTIFIISM] (H-RTIFIISM-OH)",stability of nanofibrils (UPLC),[1],stable for 10 days; also recorded: stable over time
same,cytotoxicity on T cells,[2],without showing cytotoxicity; also recorded: not showing cytotoxicity
FK-7: peptide derived from human interleukin-18; sequence only in FIG. 1A (FIISMYK; Peptide FK-7),n-fold enhancement of HIV-1 infection,[3],weak or no effects
RS-7: peptide derived from human interleukin-18; sequence only in FIG. 1A (RTIFIIS; Peptide RS-7),n-fold enhancement of HIV-1 infection,[3],weak or no effects
RS-12: peptide derived from human interleukin-18; sequence only in FIG. 1A (RDNAPRTIFIIS; Peptide RS-12),n-fold enhancement of HIV-1 infection,[3],weak or no effects
"RTIAIISM (fibril peptide 20) [Peptide A4, RM-8 analog from alanine scanning]",ThT signal (fibril formation),[4],except for
RTIFGISM (Peptide 18),ThT signal (fibril formation),[4],except for
"RTIFIISA (fibril peptide 24) [Peptide A8, RM-8 analog from alanine scanning]",ThT signal (fibril formation),[4],except for
RTIFIISMYK (fibril peptide 34) [RK-10],zeta potential (sign),[5],positive zeta potential
same,enhancement of HIV-1 infection (in words),[3]; serially diluted peptides,dose-dependably enhancement
RTIFIKSM (Peptide 26),ThT signal (fibril formation),[4],except for
RTIFIRSM (Peptide 25),ThT signal (fibril formation),[4],except for
RTIPIISM (Peptide 17),ThT signal (fibril formation),[4],except for

# From patent US20240190918A1, “FIBRIL PEPTIDES” (Universität Ulm, priority 2021, published 2024)
